# Data: patent publication US20230250188A1 (NATIONAL UNIVERSITY CORPORATION KOCHI UNIVERSITY, published 2023)
# T1: human GPC1 on the surface of GPC1-positive cancer cells (TE8, TE14, BxPC-3) (human, UniProt P35052 24-530)
# T1 sequence: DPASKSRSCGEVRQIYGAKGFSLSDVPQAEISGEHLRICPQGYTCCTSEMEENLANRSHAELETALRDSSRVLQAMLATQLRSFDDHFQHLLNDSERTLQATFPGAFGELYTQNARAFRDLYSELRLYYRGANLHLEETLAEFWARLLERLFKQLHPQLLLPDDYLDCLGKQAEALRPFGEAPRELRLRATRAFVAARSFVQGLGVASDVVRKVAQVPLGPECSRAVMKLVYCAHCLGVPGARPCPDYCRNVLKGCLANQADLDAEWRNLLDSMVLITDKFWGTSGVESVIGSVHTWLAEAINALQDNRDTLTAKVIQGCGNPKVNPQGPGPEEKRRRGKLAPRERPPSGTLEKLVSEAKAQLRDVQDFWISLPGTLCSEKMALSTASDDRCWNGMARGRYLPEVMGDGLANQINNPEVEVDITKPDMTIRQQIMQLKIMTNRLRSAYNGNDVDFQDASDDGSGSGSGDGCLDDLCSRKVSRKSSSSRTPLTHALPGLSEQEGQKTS
# T2: recombinant human GPC1 protein (R&D Systems) (human, UniProt P35052 24-530)
# T2 construct: Bought recombinant protein (R&D Systems); also called human GPC-1 antigen; Glypican-1
# T2 sequence: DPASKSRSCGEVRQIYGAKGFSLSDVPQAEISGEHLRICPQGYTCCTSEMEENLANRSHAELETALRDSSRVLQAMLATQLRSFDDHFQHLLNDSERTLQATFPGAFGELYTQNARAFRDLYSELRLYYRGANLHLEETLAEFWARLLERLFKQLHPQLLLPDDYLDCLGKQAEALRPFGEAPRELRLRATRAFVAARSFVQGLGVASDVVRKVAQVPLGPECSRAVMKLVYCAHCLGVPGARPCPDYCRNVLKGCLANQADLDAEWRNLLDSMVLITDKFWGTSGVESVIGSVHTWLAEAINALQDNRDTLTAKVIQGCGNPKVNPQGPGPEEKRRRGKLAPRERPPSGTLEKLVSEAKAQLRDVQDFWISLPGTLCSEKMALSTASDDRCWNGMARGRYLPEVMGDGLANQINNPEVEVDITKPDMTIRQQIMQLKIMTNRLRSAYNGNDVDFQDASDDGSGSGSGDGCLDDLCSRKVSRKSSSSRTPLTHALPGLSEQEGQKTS
# Assays:
# [1] = target: T1, human GPC1 on the surface of …; assay: cell-based or functional assay
# [2] = target: T2, recombinant human GPC1 protein (R&D …); assay: SPR (Biacore 8K); antibody captured by anti-human IgG (Fc) on a CM5 chip, recombinant human GPC1 flowed over
# Description: The mouse anti-human-GPC1 monoclonal antibody was humanized (subclass: IgG4), and the obtained twenty clones (T1, T2, T3, T7, T8, T10, T11, T22, T26, T28, T29, T31, T32, T33, T34, T36, T43, T56, T57, T59) were prepared. An anti-human IgG (Fc) was immobilized on an sCM5 sensor chip (GE Healthcare) using Human antibody capture kit (GE Healthcare), and the affinity of each of these clones to a recombinant human GPC1 protein (R&D Systems) was measured using Biacore (registered trademark) 8K (GE Healthcare).
Binder,Kd [2] [nM],koff [2] [s⁻¹],kon [2] [M⁻¹ s⁻¹],"IC50 of cytotoxicity on TE14 cells (ATP cell viability, 144 h) with MMAF-linked anti-human-IgG Fab as secondary antibody [1] [nM]"
"humanized anti-GPC1 monoclonal antibody clone T1 (antibody, human IgG4 S228P, kappa, V domains shown, IgG) VH: QVQLVQSGAEVKKPGASVKVSCKASGYTFTGYYMHWVRQAPGQGLEWMGEINPSTGDTTYNQKFKARVTMTRDTSTSTVYMELSSLRSEDTAVYYCAREKRDDGVFAYWGQGTLVTVSS VL: DIVMTQSPSFLSASVGDRVTITCRASQGISSYLVWYQQKPGKAPKLLIYSASVLQSGVPSRFSGRGYGTDFTLTISSLQPEDFATYYCQQSFSIPPVTFGGGTKVEIKR",5.62,0.00134,238000,0.0399
"humanized anti-GPC1 monoclonal antibody clone T43 (antibody, human IgG4 S228P, kappa, V domains shown, IgG) VH: QVQLVQSGAEVKKPGASVKVSCKASGYTFTGYYMHWVRQAPGQGLEWMGEINPSTGDTTYNQKFKARVTMTRDTSTSTVYMELSSLRSEDTAVYYCAREKRDDGVFAYWGQGTLVTVSS VL: DIVMTQSPSSLSASVGDRVTITCRASQGIRSALAWYQQKPGKAPKLLIYDASNLQSGVPSRFSGSGSGTDFTLTISDVQAEDFGTYYCQQSFGPPRTFGQGTRLEIKR",62.4,0.0106,169000,0.37
"humanized anti-GPC1 monoclonal antibody clone T3 (antibody, human IgG4 S228P, kappa, V domains shown, IgG) VH: QVQLVQSGAEVKKPGASVKVSCKASGYTFTGYYMHWVRQAPGQGLEWMGEINPSTGDTTYNQKFKARVTMTRDTSTSTVYMELSSLRSEDTAVYYCAREKRDDGVFAYWGQGTLVTVSS VL: DIVMTQSPSSVSASVGDRVSITCRASEHINGWLAWYQQIPGKAPRILISSASILQSGAPSRFSGSGFGTDFTLTISSVQPEDFATYYCQQAKSYPLTFGGGTKVEIKR",3.11,0.000713,229000,0.0526
"humanized anti-GPC1 monoclonal antibody clone T22 (antibody, human IgG4 S228P, kappa, V domains shown, IgG) VH: QVQLVQSGAEVKKPGASVKVSCKASGYTFTGYYMHWVRQAPGQGLEWMGEINPSTGDTTYNQKFKARVTMTRDTSTSTVYMELSSLRSEDTAVYYCAREKRDDGVFAYWGQGTLVTVSS VL: AIQMTQSPASLSASLGDRITITCRTSQTVAGYLNWYQQTPGNAPKLLIYSASNLQSGVPSRFSGSGSGRDFSLTISSLQSEDSATYYCQHSYSTPYTFGQGTKVEIKR",218,0.0506,232000,0.745
"humanized anti-GPC1 monoclonal antibody clone T26 (antibody, human IgG4 S228P, kappa, V domains shown) VH: QVQLVQSGAEVKKPGASVKVSCKASGYTFTGYYMHWVRQAPGQGLEWMGEINPSTGDTTYNQKFKARVTMTRDTSTSTVYMELSSLRSEDTAVYYCAREKRDDGVFAYWGQGTLVTVSS VL: DVVMTQSPSSLSASVGERVTITCRASQSISSYLNWYQQKPGKAPKLLIYAASSRATGIPHRYSGSGSGTVFTLTISRLEPEDFATYYCQQFHSYPITFGQGTRLEIKR",–,–,–,0.803
"humanized anti-GPC1 monoclonal antibody clone T32 (antibody, human IgG4 S228P, kappa, V domains shown, IgG) VH: QVQLVQSGAEVKKPGASVKVSCKASGYTFTGYYMHWVRQAPGQGLEWMGEINPSTGDTTYNQKFKARVTMTRDTSTSTVYMELSSLRSEDTAVYYCAREKRDDGVFAYWGQGTLVTVSS VL: DVVMTQSPGTLSLSPGERATLSCSASQSVSSNLAWYQQKPGQAPRLLIYGTSSRATGVPARFSGSGSGTEFTLTISSLQSEDFAAYYCQQYNSWPLTFGGGTKVEIKR",290,0.0603,208000,0.888
"humanized anti-GPC1 monoclonal antibody clone T59 (antibody, human IgG4 S228P, kappa, V domains shown, IgG) VH: QVQLVQSGAEVKKPGASVKVSCKASGYTFTGYYMHWVRQAPGQGLEWMGEINPSTGDTTYNQKFKARVTMTRDTSTSTVYMELSSLRSEDTAVYYCAREKRDDGVFAYWGQGTLVTVSS VL: EIVMTQSPSSLSASVGDRVTITCQASQHISNKLNWYQQKPGKAPKLLIYDASNLETGVPSRFSGSGYGTDFTFTVSSLQPEDIATYYCQQYDNLPITFGQGTRLEIKR",302,0.0593,197000,0.37
"humanized anti-GPC1 monoclonal antibody clone T7 (antibody, human IgG4 S228P, kappa, V domains shown, IgG) VH: QVQLVQSGAEVKKPGASVKVSCKASGYTFTGYYMHWVRQAPGQGLEWMGEINPSTGDTTYNQKFKARVTMTRDTSTSTVYMELSSLRSEDTAVYYCAREKRDDGVFAYWGQGTLVTVSS VL: AIQLTQSPSTLSASVGDRVTITCRASQSISSWLAWYQQKPGKAPKLLISDASNLASGVPLRFSGSGFGTHFTLTIDNLQPEDIATYSCQQYNNYPFTFGLGTKLEIKR",12,0.00411,343000,0.0365
"humanized anti-GPC1 monoclonal antibody clone T34 (antibody, human IgG4 S228P, kappa, V domains shown, IgG) VH: QVQLVQSGAEVKKPGASVKVSCKASGYTFTGYYMHWVRQAPGQGLEWMGEINPSTGDTTYNQKFKARVTMTRDTSTSTVYMELSSLRSEDTAVYYCAREKRDDGVFAYWGQGTLVTVSS VL: VIWMTQSPSSVSASVGDRVTITCRASQAINGWLAWYQQKPGKAPRILIYSASTLQTGAPSRFSGSGFGTDFTLTISSVQPEDFATYYCQQAKSYPLTFGGGTKVEIKR",22.8,0.00393,172000,0.0501

# Continued by falling Kd [2], values first:
Kd [2] [nM],koff [2] [s⁻¹],kon [2] [M⁻¹ s⁻¹],Binder,"IC50 of cytotoxicity on TE14 cells (ATP cell viability, 144 h) with MMAF-linked anti-human-IgG Fab as secondary antibody [1] [nM]"
462,0.0738,160000,"humanized anti-GPC1 monoclonal antibody clone T33 (antibody, human IgG4 S228P, kappa, V domains shown, IgG) VH: QVQLVQSGAEVKKPGASVKVSCKASGYTFTGYYMHWVRQAPGQGLEWMGEINPSTGDTTYNQKFKARVTMTRDTSTSTVYMELSSLRSEDTAVYYCAREKRDDGVFAYWGQGTLVTVSS VL: DVVMTQSPATLSVPPGDRATLSCRASQSVSSRLAWYQQKPGQAPKLLIYGASTRATGIPARFSGSWSGTEFTLTVSSLQSEDSAVYYCQQYNDWPRYTFGQGTKLEIKR",1.86
324,0.0664,205000,"humanized anti-GPC1 monoclonal antibody clone T29 (antibody, human IgG4 S228P, kappa, V domains shown, IgG) VH: QVQLVQSGAEVKKPGASVKVSCKASGYTFTGYYMHWVRQAPGQGLEWMGEINPSTGDTTYNQKFKARVTMTRDTSTSTVYMELSSLRSEDTAVYYCAREKRDDGVFAYWGQGTLVTVSS VL: DIVMTQSPSSLSASVGDRVTITCRASQDISSYLNWYQQKPGEAPKLLVYGASNLQRGVPPGFRGSGSGTDFTLTINNLQPEDFATYYCQQSSTSPITFGQGTRLEIKR",2.18
272,0.0506,186000,"humanized anti-GPC1 monoclonal antibody clone T11 (antibody, human IgG4 S228P, kappa, V domains shown, IgG) VH: QVQLVQSGAEVKKPGASVKVSCKASGYTFTGYYMHWVRQAPGQGLEWMGEINPSTGDTTYNQKFKARVTMTRDTSTSTVYMELSSLRSEDTAVYYCAREKRDDGVFAYWGQGTLVTVSS VL: AIRMTQSPSSLSASVGDRVTITCRASRSISTYLHWYQQKAGKAPKLLIYSAYNLQSGVPSRFSGSGSGTDFTLTISSLQPEDFATYYCQQSYSTPYTFGQGTKVEIKR",0.121
271,0.0539,198000,"humanized anti-GPC1 monoclonal antibody clone T31 (antibody, human IgG4 S228P, kappa, V domains shown, IgG) VH: QVQLVQSGAEVKKPGASVKVSCKASGYTFTGYYMHWVRQAPGQGLEWMGEINPSTGDTTYNQKFKARVTMTRDTSTSTVYMELSSLRSEDTAVYYCAREKRDDGVFAYWGQGTLVTVSS VL: AIQMTQSPATLSLSPGQRATLSCRASQSVSNYLAWYQQKPGQAPRLLIYDVSNRASGIPARFSGSGSGTDFTLTISSLEPEDFAIYYCQQRSNWPLTFGQGTKVDIKR",0.688
21.7,0.00679,313000,"humanized anti-GPC1 monoclonal antibody clone T28 (antibody, human IgG4 S228P, kappa, V domains shown, IgG) VH: QVQLVQSGAEVKKPGASVKVSCKASGYTFTGYYMHWVRQAPGQGLEWMGEINPSTGDTTYNQKFKARVTMTRDTSTSTVYMELSSLRSEDTAVYYCAREKRDDGVFAYWGQGTLVTVSS VL: DIQMTQSPSSLSASLGEMVTITCRASESIHSYLNWYQQKPGKAPNLLIYDASNLESGVPSRFSGSGYGTDFTLTISSLQPEDFATYYCQQSYGPPITFGQGTRLEIKR",0.153
7.55,0.0015,199000,"humanized anti-GPC1 monoclonal antibody clone T10 (antibody, human IgG4 S228P, kappa, V domains shown, IgG) VH: QVQLVQSGAEVKKPGASVKVSCKASGYTFTGYYMHWVRQAPGQGLEWMGEINPSTGDTTYNQKFKARVTMTRDTSTSTVYMELSSLRSEDTAVYYCAREKRDDGVFAYWGQGTLVTVSS VL: EIVLTQSPSTLSASVGDRVTITCRASQSISSWLAWYQQIPGKAPRILISSASILQSGAPSRFSGSGFGTDFTLTISSVQPEDFATYYCQQAKSYPLTFGGGTKLEIKR",0.0488
